Target: GST-Ran Q69L, GTP-bound (UniProt Q9VZ23)
Experiment: pull-down; GST-Ran loaded with GDP or GST-Ran Q69L loaded with GTP γS, or GST alone, on beads incubated with TIM-V5 expressed in S2 cells, 4 h at 4°C; bound TIM-V5 detected with anti-V5

ratio of binding, Ran GTP over Ran GDP: 1.64
Substance: V5-tagged wild-type TIM (TIMELESS) (from UniProt P49021 1-1398) (natural protein)
